From US20220048967A1 (published 2022)
Numbered stars: 1 amine (or outer) side, 2 acyl side, 3 side chain; on linkers, the order of the positions; unused ones are H or OH. Square brackets hold non-standard residues; d marks the D form. Side chains are listed from the residue outwards. Ends that are not written are not given here. * marks the point of attachment. C18 diacid = O=C(O)CCCCCCCCCCCCCCCCC(=O)*; αMePhe(2-F) = C[C@](N)(Cc1ccccc1F)C(=O)O; γGlu = O=C(O)[C@H](CCC(=O)[*:2])N[*:1]; αMeF = C[C@](N)(Cc1ccccc1)C(=O)O; AEEA = NCCOCCOCC(=O)O; Aib = CC(C)(N)C(=O)O

T1: human gastric inhibitory peptide receptor (GIPR) (human, UniProt P48546 22-466)
T1 sequence (looked up): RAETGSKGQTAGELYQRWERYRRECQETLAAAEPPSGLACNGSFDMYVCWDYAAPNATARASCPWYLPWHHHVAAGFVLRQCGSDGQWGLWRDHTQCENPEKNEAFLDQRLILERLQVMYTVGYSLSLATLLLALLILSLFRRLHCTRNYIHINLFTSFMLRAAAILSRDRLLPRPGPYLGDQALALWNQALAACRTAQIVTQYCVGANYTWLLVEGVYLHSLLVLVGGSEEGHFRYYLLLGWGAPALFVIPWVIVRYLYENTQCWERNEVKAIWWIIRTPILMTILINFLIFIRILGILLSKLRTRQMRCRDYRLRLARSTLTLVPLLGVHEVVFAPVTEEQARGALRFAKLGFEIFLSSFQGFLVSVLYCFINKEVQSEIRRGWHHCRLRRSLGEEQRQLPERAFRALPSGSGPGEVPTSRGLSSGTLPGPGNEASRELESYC


Key:
[1] = molecular target: T1, human gastric inhibitory peptide …; experiment: cell-based or functional assay
[2] = molecular target: human GLP-1 receptor (GLP-1R) (human, UniProt P43220 24-463); experiment: cell-based or functional assay

Binder | hGIPR cAMP EC50 ratio [1] | hGIPR cAMP Rel EC50 [1] [pM] | hGLP1R cAMP EC50 ratio [2] | hGLP1R cAMP Rel EC50 [2] [pM]
Y[Aib]EGT[αMePhe(2-F)]TSDHSI[αMeF]LDEK([AEEA-AEEA-γGlu-C18 diacid])AQ[Aib]HFI[dE]YLIEGGPSSG-NH2 (N-terminus assumed; SMILES CC[C@H](C)[C@H](NC(=O)[C@H](CC(C)C)NC(=O)[C@H](Cc1ccc(O)cc1)NC(=O)[C@@H](CCC(=O)O)NC(=O)[C@@H](NC(=O)[C@H](Cc1ccccc1)NC(=O)[C@H](Cc1c[nH]cn1)NC(=O)C(C)(C)NC(=O)[C@H](CCC(N)=O)NC(=O)[C@H](C)NC(=O)[C@H](CCCCNC(=O)COCCOCCNC(=O)COCCOCCNC(=O)CC[C@H](NC(=O)CCCCCCCCCCCCCCCCC(=O)O)C(=O)O)NC(=O)[C@H](CCC(=O)O)NC(=O)[C@H](CC(=O)O)NC(=O)[C@H](CC(C)C)NC(=O)[C@](C)(Cc1ccccc1)NC(=O)[C@@H](NC(=O)[C@H](CO)NC(=O)[C@H](Cc1c[nH]cn1)NC(=O)[C@H](CC(=O)O)NC(=O)[C@H](CO)NC(=O)[C@@H](NC(=O)[C@](C)(Cc1ccccc1F)NC(=O)[C@@H](NC(=O)CNC(=O)[C@H](CCC(=O)O)NC(=O)C(C)(C)NC(=O)[C@@H](N)Cc1ccc(O)cc1)[C@@H](C)O)[C@@H](C)O)[C@@H](C)CC)[C@@H](C)CC)C(=O)N[C@@H](CCC(=O)O)C(=O)NCC(=O)NCC(=O)N1CCC[C@H]1C(=O)N[C@@H](CO)C(=O)N[C@@H](CO)C(=O)NCC(N)=O) [Example 179] | 0.0575 | 1830 | 0.0169 | 2700
YXEGTXTSDHSIXLDEKAQXTFIXYLIEGGPSSGAPPPS (Y-Aib-EGT-αMeF(2F)-TSDHSI-αMeF-LDEK((2-[2-(2-Amino-ethoxy)-ethoxy]-acetyl)2-CO-(CH2)18-CO2H)AQ-Aib-TFI-(D-Glu)-YLIEGGPSSGAPPPS-NH2) [Example 174] | 0.483 | 217 | 0.0968 | 472
YXEGTXTSDXSIXLDEKAQXEFIXYLIEGGPSSGAPPPS (Y-Aib-EGT-αMeF(2F)-TSD-4Pal-SI-αMeF-LDEK((2-[2-(2-Amino-ethoxy)-ethoxy]-acetyl)2-(γ-Glu)-CO-(CH2)18-CO2H)AQ-Aib-EFI-(D-Glu)-YLIEGGPSSGAPPPS-NH2) [Example 182] | 4.37 | 44.2 | 0.873 | 46.3
YXEGTXTSDXSIXLDEKAQXEFIXYLIEGGPSSGAPPPS (Y-Aib-EGT-αMeF(2F)-TSD-(D-Tyr)-SI-αMeF-LDEK((2-[2-(2-Amino-ethoxy)-ethoxy]-acetyl)2-(γ-Glu)-CO-(CH2)18-CO2H)AQ-Aib-EFI-(D-Glu)-YLIEGGPSSGAPPPS-NH2) [Example 184] | 2.45 | 47.7 | 0.135 | 392
YXEGTXTSDHSIXLDEKAQXHFIXYLIEGGPSSGAPPPS (Y-Aib-EGT-αMeF(2F)-TSDHSI-αMeF-LDEK((2-[2-(2-Amino-ethoxy)-ethoxy]-acetyl)2-(γ-Glu)-CO-(CH2)16-CO2H)AQ-Aib-HFI-(D-Glu)-YLIEGGPSSGAPPPS-NH2) [Example 177] | 0.0749 | 1400 | 0.00673 | 6790
YXEGTXTSDHSIXLDEKAQXHFIXYLIEGGPSSGAPPPS (Y-Aib-EGT-αMeF(2F)-TSDHSI-αMeF-LDEK((2-[2-(2-Amino-ethoxy)-ethoxy]-acetyl)2-(γ-Glu)-CO-(CH2)14-CO2H)AQ-Aib-HFI-(D-Glu)-YLIEGGPSSGAPPPS-NH2) [Example 178] | 0.0341 | 3080 | 0.00349 | 13100
YXEGTXTSDXSIXLDEKAQXEFIXYLIEGGPSSGAPPPS (Y-Aib-EGT-αMeF(2F)-TSD-3Pal-SI-αMeF-LDEK((2-[2-(2-Amino-ethoxy)-ethoxy]-acetyl)2-(γ-Glu)-CO-(CH2)18-CO2H)AQ-Aib-EFI-(D-Glu)-YLIEGGPSSGAPPPS-NH2) [Example 181] | 4.1 | 45.9 | 0.718 | 59.2
YXEGTXTSDLSIXLDEKAQXEFIXYLIEGGPSSGAPPPS (Y-Aib-EGT-αMeF(2F)-TSDLSI-αMeF-LDEK((2-[2-(2-Amino-ethoxy)-ethoxy]-acetyl)2-(γ-Glu)-CO-(CH2)18-CO2H)AQ-Aib-EFI-(D-Glu)-YLIEGGPSSGAPPPS-NH2) [Example 183] | 3.1 | 61.5 | 0.843 | 55.1
YXEGTXTSDXSIXLDEKAQXEFIXYLIEGGPSSGAPPPS (Y-Aib-EGT-αMeF(2F)-TSD-(D-His)-SI-αMeF-LDEK((2-[2-(2-Amino-ethoxy)-ethoxy]-acetyl)2-(γ-Glu)-CO-(CH2)18-CO2H)AQ-Aib-EFI-(D-Glu)-YLIEGGPSSGAPPPS-NH2) [Example 185] | 0.185 | 632 | 0.00739 | 7160
YXEGTXTSDHSIXLDEKAQXTFIXYLIEGGPSSGAPPPS (Y-Aib-EGT-αMeF(2F)-TSDHSI-αMeF-LDEK((2-[2-(2-Amino-ethoxy)-ethoxy]-acetyl)2-(ϵK)-CO-(CH2)18-CO2H)AQ-Aib-TFI-(D-Glu)-YLIEGGPSSGAPPPS-NH2) [Example 175] | 1.19 | 88.1 | 0.0412 | 1110
YXEGTXTSDXSIXLDEKAQXEFIXYLIEGGPSSGAPPPS (Y-Aib-EGT-αMeF(2F)-TSD-4Pal-SI-αMeF-LDEK((2-[2-(2-Amino-ethoxy)-ethoxy]-acetyl)2-(γ-Glu)-CO-(CH2)18-CO2H)AQ-Aib-EFI-Aib-YLIEGGPSSGAPPPS-NH2) [Example 189] | 2.41 | 77.5 | 0.668 | 60.8
YXEGTXTSDXSIXLDEKAQXEFIXYLIEGGPSSGAPPPS (Y-Aib-EGT-αMeF(2F)-TSD-3Pal-SI-αMeF-LDEK((2-[2-(2-Amino-ethoxy)-ethoxy]-acetyl)2-(γ-Glu)-CO-(CH2)18-CO2H)AQ-Aib-EFI-Aib-YLIEGGPSSGAPPPS-NH2) [Example 188] | 0.969 | 121 | 0.408 | 130
HXEGTXTSDXSIXLDEKAQXEFIXYLIEGGPSSGAPPPS (H-Aib-EGT-αMeF(2F)-TSD-3Pal-SI-αMeF-LDEK((2-[2-(2-Amino-ethoxy)-ethoxy]-acetyl)2-(γ-Glu)-CO-(CH2)18-CO2H)AQ-Aib-EFI-(D-Glu)-YLIEGGPSSGAPPPS-NH2) [Example 190] | 0.158 | 738 | 2.2 | 24.1
YXEGTXTSDASIXLDEKAQXEFIXYLIEGGPSSGAPPPS (Y-Aib-EGT-αMeF(2F)-TSDASI-αMeF-LDEK((2-[2-(2-Amino-ethoxy)-ethoxy]-acetyl)2-(γ-Glu)-CO-(CH2)18-CO2H)AQ-Aib-EFI-(D-Glu)-YLIEGGPSSGAPPPS-NH2) [Example 192] | 2.83 | 61.5 | 1.73 | 28.9
YXEGTXTSDHSIXLDEKAQXTFIXYLIEGGPSSGAPPPS (Y-Aib-EGT-αMeF(2F)-TSDHSI-αMeF-LDEK((2-[2-(2-Amino-ethoxy)-ethoxy]-acetyl)2-(ϵK)-CO-(CH2)16-CO2H)AQ-Aib-TFI-(D-Glu)-YLIEGGPSSGAPPPS-NH2) [Example 176] | 0.201 | 523 | 0.0427 | 1070
YXEGTXTSDVSIXLDEKAQXEFIXYLIEGGPSSGAPPPS (Y-Aib-EGT-αMeF(2F)-TSDVSI-αMeF-LDEK((2-[2-(2-Amino-ethoxy)-ethoxy]-acetyl)2-(γ-Glu)-CO-(CH2)18-CO2H)AQ-Aib-EFI-(D-Glu)-YLIEGGPSSGAPPPS-NH2) [Example 191] | 2.53 | 64.5 | 1.6 | 35.6
YXEGTXTSDQSIXLDEKAQXEFIXYLIEGGPSSGAPPPS (Y-Aib-EGT-αMeF(2F)-TSDQSI-αMeF-LDEK((2-[2-(2-Amino-ethoxy)-ethoxy]-acetyl)2-(γ-Glu)-CO-(CH2)18-CO2H)AQ-Aib-EFI-(D-Glu)-YLIEGGPSSGAPPPS-NH2) [Example 187] | 4.61 | 37.1 | 0.702 | 57.7
Y[Aib]EGT[αMePhe(2-F)]TSDHSI[αMeF]LDEK([AEEA-AEEA-γGlu-C18 diacid])AQ[Aib]HFI[dE]YLIEGG-NH2 (N-terminus assumed; SMILES CC[C@H](C)[C@H](NC(=O)[C@H](CC(C)C)NC(=O)[C@H](Cc1ccc(O)cc1)NC(=O)[C@@H](CCC(=O)O)NC(=O)[C@@H](NC(=O)[C@H](Cc1ccccc1)NC(=O)[C@H](Cc1c[nH]cn1)NC(=O)C(C)(C)NC(=O)[C@H](CCC(N)=O)NC(=O)[C@H](C)NC(=O)[C@H](CCCCNC(=O)COCCOCCNC(=O)COCCOCCNC(=O)CC[C@H](NC(=O)CCCCCCCCCCCCCCCCC(=O)O)C(=O)O)NC(=O)[C@H](CCC(=O)O)NC(=O)[C@H](CC(=O)O)NC(=O)[C@H](CC(C)C)NC(=O)[C@](C)(Cc1ccccc1)NC(=O)[C@@H](NC(=O)[C@H](CO)NC(=O)[C@H](Cc1c[nH]cn1)NC(=O)[C@H](CC(=O)O)NC(=O)[C@H](CO)NC(=O)[C@@H](NC(=O)[C@](C)(Cc1ccccc1F)NC(=O)[C@@H](NC(=O)CNC(=O)[C@H](CCC(=O)O)NC(=O)C(C)(C)NC(=O)[C@@H](N)Cc1ccc(O)cc1)[C@@H](C)O)[C@@H](C)O)[C@@H](C)CC)[C@@H](C)CC)C(=O)N[C@@H](CCC(=O)O)C(=O)NCC(=O)NCC(N)=O) [Example 180] | 0.133 | 790 | 0.0212 | 2160
